The data set can be described thus: protein stability index of a GFP-peptide fusion (yeast GPS) (PSI 1-4); higher = more stable; sorted into four equal gates, so the index is relative within each strain. In outline:
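For each peptide, the protein stability index sums the read frequency in every gate after multiplying it by the gate number. Read frequencies came from plasmids that were PCR-amplified from each gate and Illumina-sequenced, with reads assigned to strains by barcodes. The gates were four equal bins of GFP/Cherry fluorescence ratio applied to mid-log yeast in leucine-free medium carrying a pooled library of tiled 17-residue yeast protein peptides fused downstream of GFP on a Cherry-expressing plasmid.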

± gives the uncertainty stated by the source.

Turning to LFNKPPSTNAQNVNVPS [YOR098C/NUP1], the protein stability index reads like this: (doa10∆) 3.15 ± 0.056; (pdr5∆) 3.05 ± 0.051; (san1∆) 3.03 ± 0.046; (ubr1∆) 3.12 ± 0.04.
The matching figures for KILVLTGAGVSTSLGIP [SIR2]: 2.35 ± 0.042, 2.34 ± 0.057, 2.76 ± 0.054 and 2.69 ± 0.051.
The matching figures for KLWAEIIVKILYYRPHI [GRR1]: 1.4 ± 0.064, 2.02 ± 0.071, 1.19 ± 0.15 and 1.46 ± 0.073.
In the same order, the values of LHYTPIEDLWQFLYEKH [RPC82] are 2.24 ± 0.13, 2.28 ± 0.13, 2.14 ± 0.12 and 2.4 ± 0.16.
Take GVTKGYKYKMRYVYAHF [RPL9A]: the protein stability index is 2.73 ± 0.14 (doa10∆), 3.12 ± 0.12 (san1∆) and 2.87 ± 0.16 (ubr1∆).
For SHDASRSLASFEQTAFS [SIR4], the protein stability index turned out to be 2.86 ± 0.065 (doa10∆), 2.67 ± 0.049 (pdr5∆), 2.81 ± 0.053 (san1∆) and 2.67 ± 0.067 (ubr1∆).
With TIETFNEAALVVNITHH [RPB5], the protein stability index reads like this: (doa10∆) 1.69 ± 0.11; (pdr5∆) 1.92 ± 0.061; (san1∆) 1.64 ± 0.16; (ubr1∆) 1.58 ± 0.13.
Turning to QMEDMEESINEFKSIEI [SMC4], the protein stability index was found to be 3.28 ± 0.13 (doa10∆), 3.4 ± 0.11 (pdr5∆), 3.27 ± 0.049 (san1∆) and 2.93 ± 0.085 (ubr1∆).
With NLINLSIGASIADLASL [YCS4], the protein stability index runs as follows: (doa10∆) 2.45 ± 0.055; (pdr5∆) 2.44 ± 0.052; (san1∆) 2.39 ± 0.071; (ubr1∆) 2.69 ± 0.042.
With MSESSDISAMQPVNPKP [SMX3], the protein stability index was determined as 3.42 ± 0.15 (doa10∆), 3.51 ± 0.16 (pdr5∆), 3.4 ± 0.12 (san1∆) and 3.17 ± 0.14 (ubr1∆).
In the same order, the values of LGIEAARYSIIREINYT [RPO31] are 1.76 ± 0.13, 1.66 ± 0.12, 1.31 ± 0.24 and 1.53 ± 0.12.
In the same order, the values of ESKLKIDPDTKAPNAVV [RPB11] are 2.24 ± 0.2, 2.56 ± 0.22, 2.62 ± 0.11 and 2.92 ± 0.14.
Consider RHHRKTEKEEDAELMAD [ISW2], for which the protein stability index reads like this: (doa10∆) 3.5 ± 0.13; (pdr5∆) 3.31 ± 0.11; (san1∆) 3.15 ± 0.091; (ubr1∆) 3.32 ± 0.089.
In the same order, the values of YVSQIRKHKRVSPNAAP [YAR002W/NUP60] are 1.95 ± 0.084, 1.64 ± 0.053, 2.53 ± 0.085 and 2.29 ± 0.081.
Turning to AEFKKENLADLDYQIGN [LIN1], the protein stability index is 3.29 ± 0.086 (doa10∆), 3.32 ± 0.068 (pdr5∆), 3.24 ± 0.057 (san1∆) and 3.26 ± 0.071 (ubr1∆).
The matching figures for INNPVNLTIHFGGEKGK [FAS1]: 2.97 ± 0.068, 2.8 ± 0.097, 2.8 ± 0.07 and 3.25 ± 0.069.
In the same order, the values of GPVGKECADLWPRVASN [RPL23A] are 3.2 ± 0.13, 3.3 ± 0.11, 3.17 ± 0.1 and 3.23 ± 0.057.
SFVKETKLHSGDYGEEE [SRB8] had a protein stability index (doa10∆) of 3.61 ± 0.23, a protein stability index (pdr5∆) of 3.22 ± 0.13 and a protein stability index (ubr1∆) of 3.44 ± 0.1.
Consider IVKTSSGNEMPPQDAEG [RPS19A], for which the protein stability index was determined as 2.3 ± 0.25 (doa10∆) and 3.46 ± 0.29 (pdr5∆).
FPRTRFEAQIDSVEFIF [RPN10]: the protein stability index reads like this: (doa10∆) 2.61 ± 0.11; (pdr5∆) 2.88 ± 0.066; (san1∆) 2.62 ± 0.11; (ubr1∆) 2.81 ± 0.068.
The matching figures for AGGQRIVDDYWESLAKK [SWP82]: 1.84 ± 0.19, 2.42 ± 0.092, 2.45 ± 0.13 and 2.39 ± 0.15.
The matching figures for FKLSSESVIEQIVKYAR [RPS13]: 2.54 ± 0.1, 2.97 ± 0.11, 2.63 ± 0.097 and 2.72 ± 0.043.
Sequence QLENADTGTLDTKSVVG [RPN2] registered a protein stability index (doa10∆) of 3.09 ± 0.087, a protein stability index (pdr5∆) of 3.01 ± 0.082, a protein stability index (san1∆) of 3.08 ± 0.071 and a protein stability index (ubr1∆) of 3.04 ± 0.075.
In the same order, the values of NARIYNTEGSVVYEDSL [SNF2] are 3.1 ± 0.084, 3.25 ± 0.085, 2.92 ± 0.11 and 3.25 ± 0.13.
The matching figures for IKKYASVVRVLVHTQIR [RPL3]: 1.87 ± 0.064, 2.32 ± 0.074, 1.62 ± 0.11 and 2.13 ± 0.044.
As to VSSKPSKPESSVLQLIV [MED1], the protein stability index worked out at 2.73 ± 0.13 (doa10∆), 3.28 ± 0.11 (pdr5∆), 2.94 ± 0.073 (san1∆) and 3.27 ± 0.098 (ubr1∆).
The matching figures for QSSESFDDSDITKFALF [YML103C/NUP188]: 2.44 ± 0.1, 2.23 ± 0.071, 2.48 ± 0.083 and 2.46 ± 0.075.
Take LSKFFFFIFVFNFVLLG [COB]: the protein stability index reads like this: (doa10∆) 1.42 ± 0.13; (pdr5∆) 1.19 ± 0.12; (san1∆) 1.09 ± 0.25; (ubr1∆) 1.22 ± 0.15.
The matching figures for PALESSPVTGDNSPSED [SNF2]: 3.25 ± 0.067, 3.29 ± 0.066, 3.14 ± 0.069 and 3.33 ± 0.041.
The matching figures for LLKKELLTIEPKLKEAT [SMC2]: 3.22 ± 0.052, 3.14 ± 0.064, 3.11 ± 0.046 and 3.21 ± 0.039.
For AGQLALDLANSGDESNV [YDL116W/NUP84], the protein stability index runs as follows: (doa10∆) 2.93 ± 0.29; (san1∆) 2.71 ± 0.26; (ubr1∆) 3 ± 0.12.
Turning to RCFSCGKVVGDKWESYL [RPB10], the protein stability index by setting is: (doa10∆) 1.73 ± 0.14; (pdr5∆) 2.11 ± 0.1; (san1∆) 1.98 ± 0.16.
RHLPMYTEFIDSFIEKI [ITC1]: the protein stability index was 2.4 ± 0.097 (doa10∆), 2.69 ± 0.075 (pdr5∆), 2.85 ± 0.11 (san1∆) and 3 ± 0.066 (ubr1∆).
Regarding AMQYVCGDSIICNTLNI [SMC1], the protein stability index is, setting by setting: (doa10∆) 1.57 ± 0.072; (pdr5∆) 1.65 ± 0.065; (san1∆) 1.5 ± 0.1; (ubr1∆) 1.51 ± 0.071.
In the same order, the values of PEVSMIRDIREKELKIF [RPB2] are 3.13 ± 0.15, 2.41 ± 0.084, 3.38 ± 0.075 and 2.69 ± 0.13.
As for QDPKTLVALLSRDLWCF [SSN2], the protein stability index runs as follows: (doa10∆) 1.39 ± 0.057; (pdr5∆) 1.34 ± 0.043; (san1∆) 1.31 ± 0.15; (ubr1∆) 1.54 ± 0.073.
As for KKHKQKKVLEIDFFKTD [BRN1], the protein stability index (doa10∆) came out at 2.54 ± 0.037, the protein stability index (pdr5∆) amounted to 2.67 ± 0.043, the protein stability index (san1∆) amounted to 2.83 ± 0.039 and the protein stability index (ubr1∆) was determined as 2.59 ± 0.035.
